These results are taken from patent US20140017764.

The data set has as its target […] peptide substrate.

What is called KM is the substrate concentration at which the rate is half of its maximum. Broadly, the kcat is the number of substrate molecules converted per active site and unit of time at saturation. As usually defined, the kcat/KM is the turnover number divided by the Michaelis constant.

B1: TEV-PE10, purified (protein)
chain: HHHHHHSLFKGPRDYNPISSTICHLTNESDGHTTSLYGIGFGPFIITNKHLFRRNNGTLLVQSLHGVFKVKNTTTLQQHLIDGRDMIIIRMPKDFPPFPQKLKFREPQREERICLVTTNFQTKRMSSMVSDTSCTFPSSDGIFWKHWIQTKRGQCGSPLVSTRDGFIVGIHSASNFANTNKYFTSVPKNFMELLTNQEAQQWVSGWRLNADSVLWGGHKVFIPKPEEPFQPVKEATQLMN
As for B1, the KM stood at 120 µM, the kcat came out at 0.0194 s⁻¹ and the kcat/KM is 160 M⁻¹ s⁻¹.

B2: TEV-PH21, purified (protein)
chain: HHHHHHSLFKGPRDYNPISSAICHLTNESDGHTTSLYGIGFGPFIITNKHLFRRNNGTLLVQSLHGVFKVKNTTTLQQHLIDGRDMIIIRMPKDFPPFPQKLKFREPQREERICLVTTNFQTKSMSSMVSDTSCTFPSSDGIFWKHWIQAKPGQCGCPLVSTRDGFIVGIHTAANFANTNNYFTSVPKNFMELLTNQEAQQWVSGWRLNADSVLWGGHKVFMPKPEEPFQPVKEATQLMN
Consider B2, for which the KM was 820 µM, the kcat came to 0.0171 s⁻¹ and the kcat/KM was determined as 20.7 M⁻¹ s⁻¹.

B3: wild-type TEV protease (TEV-P), purified (protein)
chain: HHHHHHSLFKGPRDYNPISSTICHLTNESDGHTTSLYGIGFGPFIITNKHLFRRNNGTLLVQSLHGVFKVKNTTTLQQHLIDGRDMIIIRMPKDFPPFPQKLKFREPQREERICLVTTNFQTKSMSSMVSDTSCTFPSSDGIFWKHWIQTKDGQCGSPLVSTRDGFIVGIHSASNFTNTNNYFTSVPKNFMELLTNQEAQQWVSGWRLNADSVLWGGHKVFMPKPEEPFQPVKEATQLMN
With B3, the KM was 110 µM, the kcat turned out to be 0.13 s⁻¹ and the kcat/KM stood at 1200 M⁻¹ s⁻¹.
